Target: MalFGK2 (Escherichia coli, UniProt P02916+P68183+P68187)
Assay type: biochemical

Compound	stimulation of MBP-dependent ATPase activity by maltose (transporter reconstituted in nanodiscs)	ATPase activity in the absence of MBP (MalFGK2 in nanodiscs)	basal ATPase activity (in detergent, absence of MBP)
OC[C@H]1O[C@H](O[C@H]2[C@H](O)[C@@H](O)C(O)O[C@@H]2CO)[C@H](O)[C@@H](O)[C@@H]1O (mixture of isomers) [maltose, reference compound]	about 10 fold		
MalFGK2: E. coli maltose ABC transporter complex: MalF, MalG and MalK dimer		did not exhibit any detectable ATPase activity	~ 122 nmol/min/mg

Reference: article PMC4715599 (Molecular microbiology, 2015)
